Laboratory results taken from patent US12390535B2, “Method of making oral dosage forms” (UNIVERSITÄT HEIDELBERG, priority 2018, dated 2025).

Experiment: Zetasizer measurement of zeta potential of liposomes
Format: physicochemical
Details: CPP coupled after liposome preparation, eight equivalents relative to first lipid (FIG. 1)
Description: The zeta potential can be determined by methods known in the art. The zeta potential may be determined after dilution of the liposomes to a lipid concentration of 0.95 mg/ml using a 50 mM phosphate buffer with a pH of 7.4. The default settings of the automatic mode of the Zetasizer Nano ZS from Malvern™ (Malvern Instruments Ltd., Worcestershire, United Kingdom) can be chosen as follows: number of measurements=3; run duration=10 s; number of runs=10; equilibration time=60 s; refractive index solvent 1.330; refractive index polystyrene cuvette 1.590; viscosity=0.8872 mPa s; temperature=25° C.; dielectric constant=78.5 F/m; backscattering mode (173°); automatic voltage selection; Smoluchowski equation.
The particle size, PDI and zeta potential of all liposomal formulations were determined at room temperature using a zetasizer Nano ZS from Malvern™ (Malvern Instruments Ltd., Worcestershire, United Kingdom). Size and PDI were measured after dilution to a lipid concentration of 0.076 mg/ml with a 10 mM phosphate buffer with a pH of 7.4 using the automatic mode. The zeta potential was determined after dilution to a lipid concentration of 0.95 mg/ml by a 50 mM phosphate buffer with a pH of 7.4. […]

RRRRRRRRRC (cyclo(RRRRRRRRRC); also: coupled to liposomes) [R9C, here coupled to liposomes after their preparation]
zeta potential: only slightly positive
